Results reported in PMC5016095 (2016).

Legend:
[1] = biological target: α-synuclein S129E (Homo sapiens, UniProt P37840); assay: fluorescence spectroscopy
[2] = biological target: α-synuclein (oligomeric) (Homo sapiens, UniProt P37840, oligomeric, pseudo-wildtype tryptophan mutant); assay: fluorescence spectroscopy

Kd [1]: ~5 µM
Kd [2]: ~5 µM
B1: TOM20 C-terminal cytosolic fragment (protein)
chain: DRKRRSDPNFKNRLRERRKKQKLAKERAGLSKLPDLKDAEAVQKFFLEEIQLGEELLAQGDYEKGVDHLTNAIAVCGQPQQLLQVLQQTLPPPVFQMLLTKLPTISQRIVSAQSLAEDDVE
